Earlier results, collected in publication PMC7290751.
pKd: −log10 of the molar value.

Tests used:
[1] = biological target: Kv1.2 (Homo sapiens) (UniProt P16389)
[2] = biological target: Kv1.3 (Homo sapiens) (UniProt P22001)
UniProt P22001, sequence (P22001 whole entry): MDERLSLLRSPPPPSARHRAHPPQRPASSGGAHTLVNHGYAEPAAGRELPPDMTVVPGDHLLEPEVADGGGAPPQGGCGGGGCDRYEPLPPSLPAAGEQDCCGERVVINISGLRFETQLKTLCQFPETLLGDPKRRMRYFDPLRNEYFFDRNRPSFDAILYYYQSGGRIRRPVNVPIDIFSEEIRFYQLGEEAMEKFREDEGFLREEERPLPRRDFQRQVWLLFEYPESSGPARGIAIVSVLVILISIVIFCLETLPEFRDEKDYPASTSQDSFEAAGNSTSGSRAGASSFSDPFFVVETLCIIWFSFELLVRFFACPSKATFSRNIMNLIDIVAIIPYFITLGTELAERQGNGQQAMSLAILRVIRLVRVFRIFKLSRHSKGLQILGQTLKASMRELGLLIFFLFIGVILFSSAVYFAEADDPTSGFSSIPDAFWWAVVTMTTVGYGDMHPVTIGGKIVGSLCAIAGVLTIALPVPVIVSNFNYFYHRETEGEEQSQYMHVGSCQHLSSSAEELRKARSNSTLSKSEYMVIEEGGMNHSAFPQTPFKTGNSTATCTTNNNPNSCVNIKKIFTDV

UniProt P16389, sequence (P16389 whole entry): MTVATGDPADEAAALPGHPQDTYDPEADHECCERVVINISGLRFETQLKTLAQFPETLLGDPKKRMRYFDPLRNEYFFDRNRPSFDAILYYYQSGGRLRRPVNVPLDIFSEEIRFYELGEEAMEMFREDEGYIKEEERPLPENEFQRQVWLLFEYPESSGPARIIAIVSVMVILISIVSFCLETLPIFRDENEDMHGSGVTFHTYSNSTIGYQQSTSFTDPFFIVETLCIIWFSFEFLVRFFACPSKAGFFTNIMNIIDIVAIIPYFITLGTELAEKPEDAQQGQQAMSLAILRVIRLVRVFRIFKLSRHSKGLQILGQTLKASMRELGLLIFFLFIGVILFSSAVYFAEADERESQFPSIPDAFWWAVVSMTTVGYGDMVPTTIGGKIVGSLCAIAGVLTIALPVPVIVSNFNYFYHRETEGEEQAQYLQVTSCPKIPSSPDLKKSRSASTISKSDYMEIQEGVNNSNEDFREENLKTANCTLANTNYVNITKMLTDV

margatoxin (MgTx) (from UniProt P40755)
pKd [1]: 11.19
pKd [2]: 10.93
